Data from paper PMC3855764, “Oct4/Sox2 Binding Sites Contribute to Maintaining Hypomethylation of the Maternal Igf2/H19 Imprinting Control Region”.

Experiments:
[1] = target: T1, Oct4 (recombinant);Sox2 (recombinant) (mouse?;mouse?, UniProt P20263;P48432 1-352;1-319, |); experiment: EMSA; several complexes, minor one likely full occupancy; 10 mM Tris pH 8.0, 2 mM MgCl (so in the source), 100 mM KCl, 1.25 mM DTT, 5% glycerol, 0.0625% BSA, 19 ug/ml dGdC, 25 fmol probe in 16 ul, 10 min room temperature; 4% PAGE 0.25X TBE; details: protein: recombinant;recombinant; tags: ;; copies: 1;1
T1 sequence (P20263 whole entry, chain 1 of 2): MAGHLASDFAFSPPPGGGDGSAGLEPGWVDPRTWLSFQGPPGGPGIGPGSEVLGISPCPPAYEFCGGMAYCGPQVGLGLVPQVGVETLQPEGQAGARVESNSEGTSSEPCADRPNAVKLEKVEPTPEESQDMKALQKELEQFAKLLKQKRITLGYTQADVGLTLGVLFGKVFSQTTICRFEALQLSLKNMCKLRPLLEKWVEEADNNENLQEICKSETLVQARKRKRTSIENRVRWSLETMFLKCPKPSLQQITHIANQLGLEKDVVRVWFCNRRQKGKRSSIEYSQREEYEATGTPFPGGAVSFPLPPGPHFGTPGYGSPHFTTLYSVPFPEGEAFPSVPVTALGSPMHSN
T1 sequence (P48432 whole entry, chain 2 of 2): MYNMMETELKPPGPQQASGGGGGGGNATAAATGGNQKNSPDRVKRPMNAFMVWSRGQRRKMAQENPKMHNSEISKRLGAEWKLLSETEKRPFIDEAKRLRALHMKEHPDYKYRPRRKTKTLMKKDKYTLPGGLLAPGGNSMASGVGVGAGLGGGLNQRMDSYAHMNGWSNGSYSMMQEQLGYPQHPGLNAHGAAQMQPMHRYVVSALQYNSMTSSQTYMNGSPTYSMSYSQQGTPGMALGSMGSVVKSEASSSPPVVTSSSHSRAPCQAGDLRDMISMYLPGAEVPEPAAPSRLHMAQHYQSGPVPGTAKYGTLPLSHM

[2] = target: T1, Oct4 (recombinant);Sox2 (recombinant); experiment: EMSA; cooperative ternary complex; versus independent binding; 10 mM Tris pH 8.0, 2 mM MgCl (so in the source), 100 mM KCl, 1.25 mM DTT, 5% glycerol, 0.0625% BSA, 19 ug/ml dGdC, 25 fmol probe in 16 ul, 10 min room temperature; 4% PAGE 0.25X TBE; details: protein: recombinant;recombinant; tags: ;; copies: 1;1
[3] = target: T1, Oct4 (recombinant);Sox2 (recombinant); experiment: EMSA; all CpGs methylated; complex not inhibited; 10 mM Tris pH 8.0, 2 mM MgCl (so in the source), 100 mM KCl, 1.25 mM DTT, 5% glycerol, 0.0625% BSA, 19 ug/ml dGdC, 25 fmol probe in 16 ul, 10 min room temperature; 4% PAGE 0.25X TBE; details: protein: recombinant;recombinant; tags: ;; copies: 1;1
[4] = target: T1, Oct4 (recombinant);Sox2 (recombinant); experiment: EMSA; Oct4-Sox2-Oct4 complex (two Oct4, one Sox2); 10 mM Tris pH 8.0, 2 mM MgCl (so in the source), 100 mM KCl, 1.25 mM DTT, 5% glycerol, 0.0625% BSA, 19 ug/ml dGdC, 25 fmol probe in 16 ul, 10 min room temperature; 4% PAGE 0.25X TBE; details: protein: recombinant;recombinant; tags: ;; chain copies: 2;1
[5] = target: T1, Oct4 (recombinant);Sox2 (recombinant); experiment: EMSA; cooperative ternary complex; printed as at least 50 fold; 10 mM Tris pH 8.0, 2 mM MgCl (so in the source), 100 mM KCl, 1.25 mM DTT, 5% glycerol, 0.0625% BSA, 19 ug/ml dGdC, 25 fmol probe in 16 ul, 10 min room temperature; 4% PAGE 0.25X TBE; details: protein: recombinant;recombinant; tags: ;; copies: 1;1

B1: mouse ICR Sox-OctA+B (both motifs) (dsDNA)
DNA 1: TTTCGTATTCTAATTGGGGCGTTCAGATGCTAATGATCTC
DNA 2: GAGATCATTAGCATCTGAACGCCCCAATTAGAATACGAAA
[1]
  binding result: binds

B2: ICR Sox-OctA (dsDNA)
DNA 1: CTGGTGATTTGCGCTTTCGTATTCTAATTGGGGAC
DNA 2: GTCCCCAATTAGAATACGAAAGCGCAAATCACCAG
[2]
  binding result: binds

B3: A* (methylated Sox-OctA) (dsDNA)
DNA 1: B2 DNA 1
DNA 2: B2 DNA 2
modifications: CpG methylated at all CpGs
[3]
  binding result: binds

B4: human ICR A2 OctA/Sox-OctB, upstream Sox site mutant (dsDNA)
DNA 1: CGCGGAGATGCTAATTTAGGAGCTTGAGATGCTAAAGAGCTG
DNA 2: CAGCTCTTTAGCATCTCAAGCTCCTAAATTAGCATCTCCGCG
[4]
  binding result: binds

B5: ICR Sox-OctB (dsDNA)
DNA 1: TTGGGGCGTTCAGATGCTAATGATCTCCGGCT
DNA 2: AGCCGGAGATCATTAGCATCTGAACGCCCCAA
[5]
  binding signal: > 50 fold ternary complex over that expected from independent binding

B6: B* (methylated Sox-OctB) (dsDNA)
DNA 1: B5 DNA 1
DNA 2: B5 DNA 2
modifications: CpG methylated at all CpGs
[3]
  binding result: binds
